From paper PMC10097392, “Ligand Installation to Polymeric Micelles for Pediatric Brain Tumor Targeting” (Polymers, 2023)

B1: Cy5-labeled DBCO-CD276Ab (DBCO-CD276Ab-Cy5) (antibody, V domains shown)
VH: QVQLQQSGAELVKPGASVKLSCKASGYTFTNYDINWVRQRPEQGLEWIGWIFPGDGSTQYNEKFKGKATLTTDTSSSTAYMQLSRLTSEDSAVYFCARQTTATWFAYWGQGTLVTVSA
VL: DIVMTQSPATLSVTPGDRVSLSCRASQSISDYLHWYQQKSHESPRLLIKYASQSISGIPSRFSGSGSGSDFTLSINSVEPEDVGVYYCQNGHSFPLTFGAGTKLELK
notes: as in m1: constant region of the IgG heavy chain as far as it is not in PDB 5CMA; m1 chemically modified: DBCO-PEG4-NHS fed at 0.25 eq. to primary amines, then Cy5-NHS ester; also called the fabricated antibody; source: CD276Ab from Expi CHO cells, conjugated with DBCO-PEG4-NHS and Cy5-NHS ester, purified (Protein G HP SpinTrap)
B2: anti-CD276 antibody (CD276Ab), 8H9 antibody, IgG (antibody, V domains shown)
VH: B1 VH
VL: B1 VL
notes: heavy chain of 8H9; constant region of the IgG heavy chain as far as it is not in PDB 5CMA; light chain of 8H9; IgG; the fabrication scheme is said to be in the Supplementary Materials; also called 'as prepared' CD276Ab; source: Expi CHO cells, co-transfected with heavy and light chain vectors, purified from supernatant (rProtein A Sepharose, SEC)

Target: T1, CD276/B7-H3 (Homo sapiens (endogenous on DAOY …, UniProt Q5ZPR3))
T1 construct: CD276/B7-H3, transmembrane protein, endogenous on medulloblastoma patient-derived DAOY cells; source: endogenous, on GFP-expressing DAOY (HTB-186) medulloblastoma cells
T1 sequence (Q5ZPR3 29-534): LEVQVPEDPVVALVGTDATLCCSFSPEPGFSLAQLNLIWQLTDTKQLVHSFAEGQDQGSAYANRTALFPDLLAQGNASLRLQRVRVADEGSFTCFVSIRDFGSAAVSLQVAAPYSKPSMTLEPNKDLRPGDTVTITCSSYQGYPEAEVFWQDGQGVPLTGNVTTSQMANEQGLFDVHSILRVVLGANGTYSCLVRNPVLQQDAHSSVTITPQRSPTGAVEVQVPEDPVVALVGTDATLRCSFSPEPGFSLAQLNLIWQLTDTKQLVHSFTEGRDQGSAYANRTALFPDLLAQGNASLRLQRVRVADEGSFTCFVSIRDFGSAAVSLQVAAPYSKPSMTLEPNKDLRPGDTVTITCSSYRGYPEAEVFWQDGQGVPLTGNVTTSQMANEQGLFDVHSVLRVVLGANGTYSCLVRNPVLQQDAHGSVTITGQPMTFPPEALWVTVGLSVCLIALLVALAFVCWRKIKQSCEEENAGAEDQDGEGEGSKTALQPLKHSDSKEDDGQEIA
Assay: immunostaining of cells or tissue; inhibition assay on live GFP-expressing DAOY cells: CD276Ab at 0, 12.5, 25.0, 50.0 and 100 ug/mL for 1 h at 37 °C, washed, then DBCO-CD276Ab-Cy5 (30.0 ug/mL) for 1 h at 37 °C; Cy5 fluorescence within cells by confocal laser scanning microscopy
Conditions: one partner purified

Row | Binder | binding result
1 | B1 | binds
2 | B2 | binds
